Experimental data reported in article PMC3713010, “Sox2 Transcriptionally Regulates Pqbp1, an Intellectual Disability-Microcephaly Causative Gene, in Neural Stem Progenitor Cells”.

B1: 16b (dsDNA)
DNA 1: GGGGGGTAGCTTCACAAAGTGATTAACACATGGATACCCCC
DNA 2: GGGGGTATCCATGTGTTAATCACTTTGTGAAGCTACCCCCC
B2: 122 (dsDNA)
DNA 1: GGGGGGAAAAGGATTTGTACTTAAATAAGCACCTGGCCCCCC
DNA 2: GGGGGGCCAGGTGCTTATTTAAGTACAAATCCTTTTCCCCCC
B3: 127 (dsDNA)
DNA 1: GGGGGTTTTGTTTTTTGTTTAAAGCAATAACATATTCAGCCCCC
DNA 2: GGGGGCTGAATATGTTATTGCTTTAAACAAAAAACAAAACCCCC
B4: 4b (dsDNA)
DNA 1: GGGGGAGTCTCTGTAAAATTAACAAACAAGTTACCCCCC
DNA 2: GGGGGGTAACTTGTTTGTTAATTTTACAGAGACTCCCCC
B5: 119 (dsDNA)
DNA 1: GGGGGCCGATCGCTTTGTTCTACATTTTATGTTCTATCCCCC
DNA 2: GGGGGATAGAACATAAAATGTAGAACAAAGCGATCGGCCCCC
B6: 3 (dsDNA)
DNA 1: GGGGGACCTATACTTTGTTTTTATTGCCTAGTAATCCCCC
DNA 2: GGGGGATTACTAGGCAATAAAAACAAAGTATAGGTCCCCC
B7: 128 (dsDNA)
DNA 1: GGGGGAATATCAGTGTAATGATTAACAGACAATGGCAGAGGCCCCC
DNA 2: GGGGGCCTCTGCCATTGTCTGTTAATCATTACACTGATATTCCCCC
B8: 15 (dsDNA)
DNA 1: GGGGGAGATCTTTACAAATTTCTATATTAGAGTTTTTTGTCCCCC
DNA 2: GGGGGACAAAAAACTCTAATATAGAAATTTGTAAAGATCTCCCCC
B9: 17 (dsDNA)
DNA 1: GGGGGTTTAAAGATTTGTTTCTTTATTATATGTAAGTACCCCC
DNA 2: GGGGGTACTTACATATAATAAAGAAACAAATCTTTAAACCCCC
B10: 13 (dsDNA)
DNA 1: GGGGGTCTCCTGCTTTGTAGTCACAGAGTAGTCAAGAAGGGCTCCCCC
DNA 2: GGGGGAGCCCTTCTTGACTACTCTGTGACTACAAAGCAGGAGACCCCC
B11: 12 (dsDNA)
DNA 1: GGGGGAGTATGAGTTTGTATATGTTGATTAACCAAACACTCCCCC
DNA 2: GGGGGAGTGTTTGGTTAATCAACATATACAAACTCATACTCCCCC
B12: 16a (dsDNA)
DNA 1: GGGGGGTGAACCCTTTCAGATTTAGTGACGTAGCTTCACAAAGTGATTAACCCCC
DNA 2: GGGGGTTAATCACTTTGTGAAGCTACGTCACTAAATCTGAAAGGGTTCACCCCCC
B13: 14 (dsDNA)
DNA 1: GGGGGGTCAGGATTTTGTGTGTGGATTAACTGTATCATCCCCC
DNA 2: GGGGGATGATACAGTTAATCCACACACAAAATCCTGACCCCCC
B14: 121 (dsDNA)
DNA 1: GGGGGGTGCTCAATTTGTGTTAGCTATTACTAGCAAGTCATTAACTCACCCCCC
DNA 2: GGGGGGTGAGTTAATGACTTGCTAGTAATAGCTAACACAAATTGAGCACCCCCC
B15: 125 (dsDNA)
DNA 1: GGGGGGGGATGCAATTGTCAGTCACCTTTCTTGAGCCTGTGGGACCCCC
DNA 2: GGGGGTCCCACAGGCTCAAGAAAGGTGACTGACAATTGCATCCCCCCCC
B16: 124 (dsDNA)
DNA 1: GGGGGCTTATGCTTCTATTCTACACAATTCCACAACCCCCC
DNA 2: GGGGGGTTGTGGAATTGTGTAGAATAGAAGCATAAGCCCCC
B17: 5 (dsDNA)
DNA 1: GGGGGTGTAGGTCATTGTGGCCTCAAATTTGGTAATGTAACCCCC
DNA 2: GGGGGTTACATTACCAAATTTGAGGCCACAATGACCTACACCCCC
B18: 7 (dsDNA)
DNA 1: GGGGGCAACCACCTCTAAATGCCTACAAATTGTATGGTCATCCCCC
DNA 2: GGGGGATGACCATACAATTTGTAGGCATTTAGAGGTGGTTGCCCCC
B19: 8 (dsDNA)
DNA 1: GGGGGGCTGTAACAGAATACCTGACAAAAGCAACTTCCCCC
DNA 2: GGGGGAAGTTGCTTTTGTCAGGTATTCTGTTACAGCCCCCC
B20: 126 (dsDNA)
DNA 1: GGGGGAATGTTGTCATAATTGAAAAAGACAAAGCACTAATCCCCC
DNA 2: GGGGGATTAGTGCTTTGTCTTTTTCAATTATGACAACATTCCCCC
B21: 4c (dsDNA)
DNA 1: GGGGGTAAAATTAACAAACAAGTTACATTATCTAATATACACCCCC
DNA 2: GGGGGTGTATATTAGATAATGTAACTTGTTTGTTAATTTTACCCCC
B22: 123 (dsDNA)
DNA 1: GGGGGAGTGCTATTTTGTCGAGAAATTGTAGAAGACACCCCC
DNA 2: GGGGGTGTCTTCTACAATTTCTCGACAAAATAGCACTCCCCC
B23: 120 (dsDNA)
DNA 1: GGGGGTCCACACTCTATAATCTCACATTGTTTGGCACCCCCCC
DNA 2: GGGGGGGTGCCAAACAATGTGAGATTATAGAGTGTGGACCCCC
B24: 6 (dsDNA)
DNA 1: GGGGGAGGACTTAATTGTTCGCATTTCTGTATTCTGCCCCC
DNA 2: GGGGGCAGAATACAGAAATGCGAACAATTAAGTCCTCCCCC
B25: 4a (dsDNA)
DNA 1: GGGGGGACTTAATTGTGAGTCTCTGTAAAATTAACAAACAAGTTACCCCCC
DNA 2: GGGGGGTAACTTGTTTGTTAATTTTACAGAGACTCACAATTAAGTCCCCCC

Key:
Test in all cases: EMSA; 10% glycerol, 20 mM HEPES pH 7.8, 45 mM KCl, 10 mM NaCl, 1 mM EDTA, 1 mM DTT, 0.2 ug/uL BSA, 0.1% NP-40, 50 ng poly-dIdC; 20 ng each GST protein; room temperature 30 min (heterodimers 4 C); 6% PAGE 0.25x TBE
Details in all cases: protein: recombinant; tags: GST (N-terminal, pGEX-6P-1); label: 32P-dCTP fill-in of the 5' (dG)5 overhangs of both strands (Methods; control probes are given with GGG)
[1] = target: T1, Brn2 DNA-binding domain (BD-Brn2) (Mus musculus (B6), UniProt P31360 336-435)
T1 sequence: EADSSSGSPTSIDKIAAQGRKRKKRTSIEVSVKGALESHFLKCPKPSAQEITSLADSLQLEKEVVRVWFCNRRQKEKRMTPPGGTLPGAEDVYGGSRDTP
Outline: (§1)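 GST-tagged transcription factor DNA-binding domains were made in E. coli BL21 and purified on glutathione-sepharose. They were tested against candidate cis-element oligonucleotides, annealed and labelled with 32P-dCTP. Each protein (20 ng) was mixed with 40,000–50,000 cpm probe and 50 ng poly-dIdC in HEPES/KCl glycerol buffer with BSA and detergent for 30 min at room temperature. Samples were resolved on 6% polyacrylamide in 0.25×TBE at 4°C. DNA binding was scored as band radioactivity in the expected shift region, measured on a BAS4000 imager.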

[2] = target: T2, Oct6 DNA-binding domain (BD-Oct6) (Mus musculus (B6), UniProt P21952 317-416)
T2 sequence: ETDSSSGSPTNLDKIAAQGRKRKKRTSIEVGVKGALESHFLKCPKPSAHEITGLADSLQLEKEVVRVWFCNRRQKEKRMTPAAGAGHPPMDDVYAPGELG
Outline: as §1

[3] = target: Pax6 DNA-binding domain (BD-Pax6) (Mus musculus (B6), UniProt P63015 190-289)
Outline: as §1

Sequence of Pax6 DNA-binding domain (BD-Pax6) (P63015 190-289): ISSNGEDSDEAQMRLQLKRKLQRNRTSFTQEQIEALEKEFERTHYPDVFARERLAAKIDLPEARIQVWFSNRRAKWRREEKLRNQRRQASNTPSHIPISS

| Binder | binding result [1] | binding result [2] | binding result [3] |
| --- | --- | --- | --- |
| B1 | binds | binds | no binding |
| B2 | binds | binds | no binding |
| B3 | binds | binds | binds |
| B4 | binds | binds | no binding |
| B5 | no binding | no binding | no binding |
| B6 | no binding | no binding | no binding |
| B7 | no binding | no binding | binds |
| B8 | no binding | no binding | no binding |
| B9 | binds | binds | no binding |
| B10 | no binding | no binding | no binding |
| B11 | binds | no binding | no binding |
| B12 | binds | binds | no binding |
| B13 | no binding | no binding | no binding |
| B14 | binds | binds | binds |
| B15 | binds | binds | no binding |
| B16 | no binding | no binding | no binding |
| B17 | binds | no binding | no binding |
| B18 | no binding | no binding | no binding |
| B19 | no binding | no binding | no binding |
| B20 | binds | binds | binds |
| B21 | binds | binds | no binding |
| B22 | no binding | no binding | no binding |
| B23 | no binding | binds | no binding |
| B24 | binds | binds | no binding |
| B25 | binds | binds | no binding |
